Experimental data taken from patent US20190033318A1 (UNIVERSITY OF SOUTHAMPTON, published 2019).
Starred links: 1 amine or outer side, 2 acyl side, 3 side chain; linkers in the order of their positions; H or OH if unused. Non-standard residues stand in square brackets, D forms with d. Tyr(Me) = 4-methoxyphenylalanine (O-methyl-tyrosine), COc1ccc(C[C@H](N[*:1])C(=O)[*:2])cc1; Phe(4-NO2) = N[C@@H](Cc1ccc([N+](=O)[O-])cc1)C(=O)O; Phe(4-F) = N[C@@H](Cc1ccc(F)cc1)C(=O)O; Phe(4-Me) = Cc1ccc(C[C@H](N)C(=O)O)cc1; Cha = N[C@@H](CC1CCCCC1)C(=O)O

B1: CRLLI(4-MeO-F) (peptide)
peptide: cyclo(CRLLI[Tyr(Me)])
SMILES: CC[C@H](C)[C@@H]1NC(=O)[C@H](CC(C)C)NC(=O)[C@H](CC(C)C)NC(=O)[C@H](CCCNC(=N)N)NC(=O)[C@H](CS)NC(=O)[C@H](Cc2ccc(OC)cc2)NC1=O
notes: also called CRLLIX where X = 4-MeO-F
B2: cyclo-CRLLIF (SEQ ID NO 3) (peptide)
peptide: CRLLIF
modifications: cyclic peptide (cyclo-, first amino acid joined to the last)
notes: One of the 4 cyclic peptide hits of the SICLOPPS screen; made by solid phase synthesis; also called CRLLIX where X = F

These binders were tested against T1, 2α PASB (HIF-2α PASB domain, 240-350) (UniProt Q99814 240-350, labelled with NT-647-NHS dye in MST; 15N (and 13C 15N) labelled in NMR) (assay: MST, HIF-2α PASB domain).
T1 construct: range 240-350; also called PAS B domain of HIF-2α; not shown: His6 tag of vector pET28, then Met
T1 sequence (Q99814 240-350): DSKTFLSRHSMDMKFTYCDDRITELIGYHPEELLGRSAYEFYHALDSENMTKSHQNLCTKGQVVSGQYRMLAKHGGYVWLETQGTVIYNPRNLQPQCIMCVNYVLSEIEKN
cyclo(CRLLI[Phe(4-F)]) (also called CRLLIX where X = 4-F-F) [CRLLI(4-F-F)] showed a Kd of 7.41 µM.
Work on cyclo(CRLLI[Phe(4-NO2)]) (also called CRLLIX where X = 4-NO2-F) [CRLLI(4-NO2-F)] yielded a Kd of 5.76 µM.
Work on cyclo(CRLLI[Cha]) (also called CRLLIX where X = Cha) [CRLLI(Cha)] yielded a Kd of 5.63 µM.
B1 showed a Kd of 4.5 µM.
With cyclo(CRLLI[Phe(4-Me)]) (also called CRLLIX where X = 4-Me-F) [CRLLI(4-Me-F)] the Kd was 5.27 µM.
For B2, the Kd was 15.4 µM.
In the case of CRLLIW (cyclic analogue of cyclo-CRLLIF), the Kd is reported as 9.6 µM.

The binders below were run against T2, Trx-2α (thioredoxin-tagged HIF-2α 1-360, bHLH-PASA-PASB) (UniProt Q99814 1-360) (assay: competition ELISA: His-tagged Trx-2α on Ni plate, peptide titrated, binding of GST-1β (blocked partner) detected with anti-GST, A450).
T2 construct: range 1-360; not shown: Thioredoxin-His6 tag of vector pET32
T2 sequence (Q99814 1-360): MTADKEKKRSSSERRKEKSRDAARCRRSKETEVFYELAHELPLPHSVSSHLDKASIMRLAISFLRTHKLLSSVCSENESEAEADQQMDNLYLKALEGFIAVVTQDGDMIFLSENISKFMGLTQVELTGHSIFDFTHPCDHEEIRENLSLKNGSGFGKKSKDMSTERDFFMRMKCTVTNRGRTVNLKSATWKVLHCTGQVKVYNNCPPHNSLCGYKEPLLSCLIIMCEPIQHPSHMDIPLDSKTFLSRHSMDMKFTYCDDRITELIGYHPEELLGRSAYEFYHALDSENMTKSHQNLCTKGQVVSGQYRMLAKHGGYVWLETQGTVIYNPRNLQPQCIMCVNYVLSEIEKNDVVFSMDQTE
Method: (§1) IC₅₀ values for the compound=3.7 μM/8.8 μM for 1α/2α.
(§2) 25 μL of His-tagged HIF-α protein (either Trx-1α, Trx-2α, 1α PASB, or 2α PASB) at 0.1 μM in HIF assay buffer were added to individual wells of a Pierce Ni²⁺-coated 96-well plate (Thermo) in triplicate. The plate was rocked gently at room temperature for 1 hr, before washing with 3×200 μL assay buffer (5 min incubation per wash). 25 μL of compounds and/or DMSO at the stated concentrations were added to the plate and allowed to equilibrate for 30 min prior to the addition of 25 μL of GST-1β at 0.2 μM in assay buffer for 1 hr. For conditions in which no compound or DMSO were used, GST-1β was added as a 0.1 μM solution. After incubation with GST-1β, the wells were washed with 3×200 μL assay buffer then 1×200 μL PBS. The wells were then incubated with 100 μL mouse α-GST antibody (Thermo, MS-707-P) at a 1/1000 dilution in PBS supplemented with 0.1% Tween-20 (PBST) and 2% non-fat powdered milk (Marvel) for 1 hr, followed by 3×200 μL washed with PBS. 100 μL of secondary HRP-conjugated α-mouse antibody (GE Healthcare) was added at a 1/6000 dilution in 2% milk/PBST for 1 hr, then washed with 3×200 μL PBS. […] Absorbance was read at 450 nm using a Tecan Infinite M200 Pro plate reader. Data were fitted and IC₅₀ values determined by non-linear regression using GraphPad Prism 6.
With B2 the IC50 was 186 µM.

These binders were tested against T3, 1α PASB (HIF-1α PASB domain, 238-349) (UniProt Q16665 238-349, labelled with NT-647-NHS dye in MST) (assay: MST, peptide titrated into fluorescently labelled 1α PASB).
T3 construct: range 238-349; not shown: His6 tag of vector pET28, then Met
Method: (§3) Microscale thermophoresis (MST) was performed to determine Kd of peptide binding to fluorescently labelled HIF-1α/2α PASB domains.
(§4) 0.5 mL of 1α or 2α PASB protein stocks in HIF storage/assay buffer were dialysed against 1 L of MST labelling buffer (100 mM NaHCO₃ pH 8, 150 mM NaCl and 5% glycerol) for 1.5 hr at 4° C., then against 1 L of fresh labelling buffer at 4° C. overnight. 100 μL of each dialysed protein diluted to 10 μM were incubated with 100 μL of 30 μM NT-647-NHS dye (NanoTemper protein labelling kit) for 20 min in the dark, then exchanged into 650 μL HIF assay buffer supplemented with 0.05% Tween-20 using the supplied gravity flow purification columns. A dilution series of cyclo-CRVIIF (SEQ ID NO 4) or alanine scan analogues (in HIF assay buffer, 10% DMSO) was mixed with equal volumes of labelled 1α PASB or 2α PASB at 100 nM and allowed to equilibrate for 10 min. Samples were loaded into hydrophilic capillaries and, after optimising the power, MST was performed using a Monolith […] instrument (NanoTemper). Data were analysed using NT Analysis Software using the Temperature Jump analysis mode.
In the case of B2, the Kd is reported as 13.5 µM.

Each binder was assayed against T3, 1α PASB (HIF-1α PASB domain, 238-349) (assay: thermal shift assay, 1 mM peptide).
Method: (§5) Thermal denaturation of HIF proteins was performed in 20 μL reactions in triplicate using a Bio-Rad CFX Connect Real-Time System. Proteins were used at either 5 μM (Trx-1α, Trx-2α and GST-1β) or 15 μM (His-tagged PASB domains) in HIF assay buffer, with 10 mM DTT and SYPRO orange dye (Life Technologies) at a final concentration of 8×(relative to 5000×stock), and supplemented with either DMSO or compound dissolved in DMSO at the stated concentrations. The reaction plate was assembled on ice, then transferred to the pre-chilled thermal cycler, held at 10° C. for 5 min (heated lid, 105° C.), then the temperature ramped to 95° C. Fluorescence was recorded at 0.5° C. increments, holding for 5 sec at each temperature. Data were plotted using GraphPad Prism 6, and melting temperatures calculated using the first derivative method in which the peak (i.e. the steepest transition between data points) represents the point at which 50% of the protein sample is denatured. Errors are quoted as the inherent error associated with the first derivative of the data, i.e. ±0.25° C. for Tₘ values and ±0.5° C. for ΔTₘ values.
B2 showed a ΔTm of -2 ° C.

These binders were tested against T1, 2α PASB (HIF-2α PASB domain, 240-350) (assay: thermal shift assay, 1 mM peptide).
Method: as §5
For B2, the ΔTm was -4 ° C.

Each binder was assayed against T4, 1β PASB (HIF-1β PASB domain, 356-474) (UniProt P27540 356-474) (assay: thermal shift assay, 1 mM peptide).
T4 construct: range 356-474; not shown: His6 tag of vector pET28
T4 sequence (P27540 356-474): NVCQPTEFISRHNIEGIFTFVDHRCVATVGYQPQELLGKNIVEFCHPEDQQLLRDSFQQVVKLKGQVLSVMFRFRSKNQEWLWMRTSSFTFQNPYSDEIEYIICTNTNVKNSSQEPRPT
Method: as §5
B2 was tested, and the ΔTm was -1 ° C.

The binders below were run against T2, Trx-2α (thioredoxin-tagged HIF-2α …) (assay: thermal shift assay, 1 mM peptide).
Method: as §5
B2 was tested, and the ΔTm was -4 ° C.

What follows are binders tested against T5, Trx-1α (thioredoxin-tagged HIF-1α 1-350, bHLH-PASA-PASB) (UniProt Q16665 1-350) (assay: thermal shift assay, 1 mM peptide).
T5 construct: range 1-350; not shown: Thioredoxin-His6 tag of vector pET32
Method: as §5
B2 gave a ΔTm of 0.5 ° C.

What follows are binders tested against T6, HIF-1α (construct not given) (UniProt Q16665 1-350, limits assumed) (assay: HIF-1 ELISA, inhibition of HIF-1α/HIF-1β dimerisation).
T6 construct: also called HIF-1 ELISA
Method: (§6) 25 μL of His-tagged HIF-α protein (either Trx-1α, Trx-2α, 1α PASB, or 2α PASB) at 0.1 μM in HIF assay buffer were added to individual wells of a Pierce Ni²⁺-coated 96-well plate (Thermo) in triplicate. The plate was rocked gently at room temperature for 1 hr, before washing with 3×200 μL assay buffer (5 min incubation per wash). 25 μL of compounds and/or DMSO at the stated concentrations were added to the plate and allowed to equilibrate for 30 min prior to the addition of 25 μL of GST-1β at 0.2 μM in assay buffer for 1 hr. For conditions in which no compound or DMSO were used, GST-1β was added as a 0.1 μM solution. After incubation with GST-1β, the wells were washed with 3×200 μL assay buffer then 1×200 μL PBS. The wells were then incubated with 100 μL mouse α-GST antibody (Thermo, MS-707-P) at a 1/1000 dilution in PBS supplemented with 0.1% Tween-20 (PBST) and 2% non-fat powdered milk (Marvel) for 1 hr, followed by 3×200 μL washed with PBS. 100 μL of secondary HRP-conjugated α-mouse antibody (GE Healthcare) was added at a 1/6000 dilution in 2% milk/PBST for 1 hr, then washed with 3×200 μL PBS. Wells were incubated with 100 μL of 1-Step Ultra TMB-ELISA solution (Thermo) until a blue colour developed (typically 10-15 min) and the reaction was stopped by the addition of 100 μL of a ⅕ dilution of conc. H₂SO₄, which turned the solution yellow. Absorbance was read at 450 nm using a Tecan Infinite M200 Pro plate reader. Data were fitted and IC₅₀ values determined by non-linear regression using GraphPad Prism 6.
Binder cyclo(CRLLI[Phe(4-F)]) (also called CRLLIX where X = 4-F-F) [CRLLI(4-F-F)] has an IC50 of 37.5 µM.
Work on cyclo(CRLLI[Phe(4-NO2)]) (also called CRLLIX where X = 4-NO2-F) [CRLLI(4-NO2-F)] yielded an IC50 of 27.8 µM.
cyclo(CRLLI[Cha]) (also called CRLLIX where X = Cha) [CRLLI(Cha)] gave an IC50 of 25.5 µM.
B1 was tested, and the IC50 was 36.7 µM.
For cyclo(CRLLI[Phe(4-Me)]) (also called CRLLIX where X = 4-Me-F) [CRLLI(4-Me-F)], the IC50 was 11.9 µM.
In the case of B2, the IC50 is reported as 71.3 µM.

What follows are binders tested against T7, HIF-2α (construct not given) (UniProt Q99814 1-360, limits assumed) (assay: HIF-2 ELISA, inhibition of HIF-2α/HIF-1β dimerisation).
T7 construct: also called HIF-2 ELISA
T7 sequence (Q99814 1-360 limits assumed): as the sequence (Q99814 1-360) above
Method: as §6
In the case of cyclo(CRLLI[Phe(4-F)]) (also called CRLLIX where X = 4-F-F) [CRLLI(4-F-F)], the IC50 is reported as 11.5 µM.
Work on cyclo(CRLLI[Phe(4-NO2)]) (also called CRLLIX where X = 4-NO2-F) [CRLLI(4-NO2-F)] yielded an IC50 of 12 µM.
cyclo(CRLLI[Cha]) (also called CRLLIX where X = Cha) [CRLLI(Cha)] gave an IC50 of 19.8 µM.
B1 was tested, and the IC50 was 15.3 µM.
In the case of cyclo(CRLLI[Phe(4-Me)]) (also called CRLLIX where X = 4-Me-F) [CRLLI(4-Me-F)], the IC50 is reported as 6.07 µM.
Work on B2 yielded an IC50 of 98.3 µM.

Each binder was assayed against T1, 2α PASB (HIF-2α PASB domain, 240-350) (assay: MST, peptide titrated into labelled PAS-B domain of HIF-2α).
Binder cyclo(CRLLI[Cha]) (also called CRLLIX where X = Cha) [CRLLI(Cha)] has a Kd of 5.8 µM.
Binder cyclo(CRLLI[Phe(4-Me)]) (also called CRLLIX where X = 4-Me-F) [CRLLI(4-Me-F)] has a Kd of 5.4 µM.

What follows are binders tested against T5, Trx-1α (thioredoxin-tagged HIF-1α …) (assay: competition ELISA: His-tagged Trx-1α on Ni plate, peptide titrated, binding of GST-1β (blocked partner) detected with anti-GST, A450).
Method: as §1, §2
Work on B2 yielded an IC50 of 102 µM.

What follows are binders tested against T3, 1α PASB (HIF-1α PASB domain, 238-349) (assay: MST, HIF-1α PASB domain).
cyclo(CRLLI[Phe(4-F)]) (also called CRLLIX where X = 4-F-F) [CRLLI(4-F-F)] showed a Kd of 6.84 µM.
With cyclo(CRLLI[Phe(4-NO2)]) (also called CRLLIX where X = 4-NO2-F) [CRLLI(4-NO2-F)] the Kd was 3.73 µM.
Work on cyclo(CRLLI[Cha]) (also called CRLLIX where X = Cha) [CRLLI(Cha)] yielded a Kd of 1.37 µM.
For B1, the Kd was 10.8 µM.
In the case of cyclo(CRLLI[Phe(4-Me)]) (also called CRLLIX where X = 4-Me-F) [CRLLI(4-Me-F)], the Kd is reported as 9.61 µM.
In the case of B2, the Kd is reported as 36.9 µM.
CRLLIW (cyclic analogue of cyclo-CRLLIF) showed a Kd of 7.7 µM.

These binders were tested against T1, 2α PASB (HIF-2α PASB domain, 240-350) (assay: MST, peptide titrated into fluorescently labelled 2α PASB).
Method: as §3, §4
For B2, the Kd was 59.6 µM.

Each binder was assayed against T3, 1α PASB (HIF-1α PASB domain, 238-349) (assay: MST, peptide titrated into labelled PAS-B domain of HIF-1α).
Work on cyclo(CRLLI[Cha]) (also called CRLLIX where X = Cha) [CRLLI(Cha)] yielded a Kd of 4.1 µM.
cyclo(CRLLI[Phe(4-Me)]) (also called CRLLIX where X = 4-Me-F) [CRLLI(4-Me-F)] was tested, and the Kd was 11.4 µM.
